# Several values for one entry are separate records, joined by “and”; a condition that tells them apart may be missing. Equal entries are not always repeated.
# Assays:
# PC-3 cells [1] = assay: Boyden chamber migration of PC-3 cells against conditioned medium from mature adipocytes (CM-Ad, 3T3-F442A); format: cell-based, human
# Text: The monoclonal antibodies targeted against CCR1 (D063-3 clone 141-2) and CCR3 (D083-3, clone 444-11) are obtained from MBL International (Worburn, Mass., USA). The anti-CCR2 (clone E68) and anti-CCR3 (clone Y31) monoclonal antibodies are obtained from Abcam (Cambridge, Mass., USA). The monoclonal antibodies against CXCR2 (clone 48311), CXCR4 (clone 44716) and CCR1 (clone 53504) are obtained from R&D Systems (Minneapolis, Minn., USA).
# The inhibitor targeting the receptor CXCR4, AMD3100 (Rosenkilde, Gerlach et al. 2004) is obtained from Sigman Aldrich and is used at final concentrations of 1, 10, 50 and 100 nM. The inhibitor targeting the receptors CXCR1 and CXCR2, SB225002 (White, Lee et al. 1998)) is obtained from Tocris (Bristol, United Kingdom) and is used at final concentrations of 1, 10 and 100 nm. […]
# In order to evaluate the ability of tumor cells to migrate according to the culture medium, Boyden chamber migration tests were conducted using 8 μm porosity Greiner bio-one inserts. […] The migration of the tumor cells is evaluated after 12 hrs of migration at 37° C. and 5% CO2 by 1% toluidine blue staining supplemented with 0.1M borax (Sigma, St Louis, Mo., USA) and quantification of the absorbance (measured at 570 nm).
# PC-3 cells [2] = assay: Migration of PC-3 cells against serum-free medium with recombinant CCL7; format: cell-based, human; conditions: dose-dependent, 1-100 ng/ml
# Method: (§1) In order to evaluate the ability of tumor cells to migrate according to the culture medium, Boyden chamber migration tests were conducted using 8 μm porosity Greiner bio-one inserts. In the lower compartment either culture medium with or without serum, or conditioned medium from F442A adipocytes (CM-Ad), human periprostatic adipose tissue (CM-PPAT), mouse perigonadal adipose tissue (CM-PGAT), adipocytes or vascular fraction cells (SVF) isolated from PPAT or PGAT is introduced. These conditioned media may be pretreated for 30 minutes by adding antibodies blocking the chemokine CCL7. Experiments with the recombinant chemokine CCL7 were also conducted, in this case the chemokine is added to serum-free culture medium to verify the chemoattractant potential thereof on a cell line. In the upper chamber 1×10^5 cells, previously depleted for 6 hours of serum are deposited in serum-free culture medium. […] The migration of the tumor cells is evaluated after 12 hrs of migration at 37° C. and 5% CO2 by 1% toluidine blue staining supplemented with 0.1M borax (Sigma, St Louis, Mo., USA) and quantification of the absorbance (measured at 570 nm).
# Du-145 cells = assay: Migration of Du-145 cells against serum-free medium with recombinant CCL7; format: cell-based, human; conditions: dose-dependent, 1-100 ng/ml
# Method: as §1
# RM1-BM cells = assay: Migration of RM1-BM cells against serum-free medium with recombinant CCL7; format: cell-based, mouse; conditions: 100 ng/mL; p<0.01
# Method: as §1
# TRAMP-C1P3 cells [3] = assay: Migration of TRAMP-C1P3 cells against serum-free medium with recombinant CCL7; format: cell-based, mouse; conditions: 1-100 ng/ml
# Method: as §1
# TRAMP-C1P3 cells [4] = assay: Migration of shRNA-transfected TRAMP-C1P3 lines against CM-Ad or adipose tissue conditioned medium; format: cell-based, mouse
# Method: In order to evaluate the ability of tumor cells to migrate according to the culture medium, Boyden chamber migration tests were conducted using 8 μm porosity Greiner bio-one inserts. In the lower compartment either culture medium with or without serum, or conditioned medium from F442A adipocytes (CM-Ad), human periprostatic adipose tissue (CM-PPAT), mouse perigonadal adipose tissue (CM-PGAT), adipocytes or vascular fraction cells (SVF) isolated from PPAT or PGAT is introduced. These conditioned media may be pretreated for 30 minutes by adding antibodies blocking the chemokine CCL7. Experiments with the recombinant chemokine CCL7 were also conducted, in this case the chemokine is added to serum-free culture medium to verify the chemoattractant potential thereof on a cell line. In the upper chamber 1×10^5 cells, previously depleted for 6 hours of serum are deposited in serum-free culture medium. For the migration tests in the presence of blocking antibodies specific for CCR1 or CCR3 or inhibitors of CCR1/CCR3, CCR2, CXCR1/CXCR2 and CXCR4, the tumor cells are previously incubated in a tube with the blocking antibody or the inhibitor for 30 min at 37° C. The migration of the tumor cells is evaluated after 12 hrs of migration at 37° C. and 5% CO2 by 1% toluidine blue staining supplemented with 0.1M borax (Sigma, St Louis, Mo., USA) and quantification of the absorbance (measured at 570 nm).
# (§2) The nucleotides targeting the sequence of CCR3 are shown in upper case, whereas the sequence responsible for the hairpin structure and the sequences required for directional cloning are represented in lower case letter. The lentiviral vector LVTHM® is a lentiviral vector (LV) coding for the shRNA CCR3 sequences under the control of the H1 promoter also expressing GFP. The TRAMP-C1P3 cells were then transfected in the presence of m4, m5 or m6-LVTHM for 24 hours at a multiplicity of infection (MOI) of 1:10. The transfected population is selected by GFP expression (cell sorting). These cells were then analyzed by flow cytometry to validate the loss of expression of the CCR3 gene. The control used is the pLVTHM plasmid which expresses an ineffective shRNA sequence.
# receptor CCR3 = assay: Expression of receptor CCR3 in shRNA-transfected TRAMP-C1P3 cells; format: cell-based, mouse; conditions: stable shRNA, lentiviral
# Method: The tumor cells (from prostate, breast, colon, pancreas, or melanoma) were washed three times in FACS buffer (PBS supplemented with 0.5% BSA and 2% FCS) and fixed with a 3.7% paraformaldehyde solution for 20 min at 4° C. The tumor cells were suspended with anti-CXCR4 (10 μg/ml), anti-CXCR1 (10 μg/ml), anti-CXCR2 (1:25), anti-CCR1 (10 μg/ml), anti-CCR2 (20 μg/ml), anti-CCR3 (10 μg/ml) antibodies or isotypical mouse anti-IgG control antibodies at 4° C. for 2 hours. The tumor cells were incubated with a mouse anti-IgG secondary antibody (dilution to 1:200) coupled with Alexa Fluor 488 or coupled with Cyanine 5 (for cells expressing GFP) for 30 minutes at 4° C. Finally, 2×10^4 cells were analyzed by flow cytometry using a FACScan and FACScalibur flow cytometer (analysis on CellQuest™ software (BD-PharMingen)).
# In order to inhibit the expression of the receptor CCR3 (NM_009914) in a stable manner in TRAMP-C1P3 cells, an shRNA approach was used enabling stable negative regulation even after several months of culture. The interfering sequences were generated using the Dharmacon “Center siDesign” tool. The sequences of the sense strands of shRNA generated are as follows:
# as §2
# TRAMP-C1P3 cells [5] = assay: Intraprostatic injection of TRAMP-C1P3 cells in C57BL/6 mice, tumor growth; format: in vivo; conditions: for tumor size: 2×10^6 cells intraprostatic, n=11, p<0.001 vs shCtrl
# Method: Male C57BL/6 mice aged 18 weeks on a normal or high-fat diet were anesthetized with isoflurane. A transverse incision was made at the lower part of the abdomen. The muscles of the abdominal wall were incised, and the bladder and the seminal vesicles were released so as to expose the dorsal lobe of the prostate. A suspension of 2×10^6 cells (in 30 μl of PBS) was then carefully injected under the prostate capsule by means of a gauge 30 needle. The incision was closed using 4-0 suture and clips. The animals were then placed in cages and regular monitoring is conducted in order to monitor macroscopically the general condition of the mouse. After 20 days of tumor establishment, the mice are sacrificed, the primary tumor is thus removed, measured and weighed, and an acquisition in white light and GFP is carried out. The tumors are then placed in a paraformaldehyde solution (4%) and included in paraffin.
molecule,measurement,setting,value
c1cc(CN2CCCNCCNCCCNCC2)ccc1CN1CCCNCCNCCCNCC1 [AMD3100],reduction of migration of PC-3 cells against CM-Ad,"PC-3 cells [1]; 100 nM (maximum dose, only dose effective), p<0.05",approximately 20%
O=C(Nc1ccc([N+](=O)[O-])cc1O)Nc1ccccc1Br [SB225002],inhibition of migration of PC-3 cells induced by CM-Ad,"PC-3 cells [1]; 50 nM, p<0.01",approximately 30%
"recombinant chemokine CCL7: human recombinant chemokine CCL7, ligand of CCR3, added to serum-free medium as chemoattractant",dose from which induced migration of PC-3 cells is significant compared to medium alone,PC-3 cells [2],50 ng/mL
same,dose from which induced migration of Du-145 cells is significant compared to medium alone,Du-145 cells,50 ng/mL
same,induction of migration of RM1-BM cells with respect to serum-free medium,RM1-BM cells,significant migration
same,dose from which dose-dependent chemotaxis of TRAMP-C1P3 cells is induced,TRAMP-C1P3 cells [3],50 ng/mL
"m4CCR3: shRNA targeting the gene CCR3, SEQ ID NO: 1 (nucleic acid) CGCGTCCCCAGACCACACCCTATGAATATTCAAGAGATATTCATAGGGTGTGGTCTTTTTTGGAAAT",migration of shCCR3 TRAMP-C1P3 lines against CM-Ad with respect to control line,TRAMP-C1P3 cells [4],significant reduction
same,expression of receptor CCR3 in TRAMP-C1P3 line with respect to control line (shCtrl),receptor CCR3,significant reduction
"m6CCR3: shRNA targeting the gene CCR3, SEQ ID NO: 3 (nucleic acid) CGCCGTCCCCGGTGAGAGGTTCCGGAAACTTCAAGAGAGTTTCCGGAACCTCTCACCTTTTTGGAAAT",migration of shCCR3 TRAMP-C1P3 lines against CM-Ad with respect to control line,TRAMP-C1P3 cells [4],significant reduction
same,migration of shCCR3 TRAMP-C1P3 line against conditioned medium of ND AT-mu-PG with respect to control line,TRAMP-C1P3 cells [4]; ND AT-mu-PG,reduction in the migration is also detected
same,increase in migration in presence of HFD AT-mu-PG,"TRAMP-C1P3 cells [4]; m6CCR3 line, unlike shCtrl line",not significant
same,"invasion of the dorsal lobe of the prostate (histology, HE) compared with C1P3 Ctrl line",TRAMP-C1P3 cells [5]; histological sections,much less extensive invasion
same,tumor size,TRAMP-C1P3 cells [5]; mice on normal-fat diet,220±30 mm3
same,tumor size,TRAMP-C1P3 cells [5]; obese mice on high-fat diet,210±25 mm3 and 200±50 mm3
same,expression of receptor CCR3 in TRAMP-C1P3 line with respect to control line (shCtrl),receptor CCR3,significant reduction
"m5CCR3: shRNA targeting the gene CCR3, SEQ ID NO: 2 (nucleic acid) CGCGTCCCCGACCACACCCTATGAATATTTCAAGAGAATATTCATAGGGTGTGGTCTTTTTGGAAAT",migration of shCCR3 TRAMP-C1P3 lines against CM-Ad with respect to control line,TRAMP-C1P3 cells [4],significant reduction
same,expression of receptor CCR3 in TRAMP-C1P3 line with respect to control line (shCtrl),receptor CCR3,significant reduction

# From US10401365B2, “Inhibition of chemokine CCL7 or receptor CCR3 of same for the treatment and diagnosis of prostate cancer” (Universite Paul Sabatier (Toulouse III), priority 2014, dated 2019)
